Experimental data from patent US20230227548A1 (published 2023).

Target: T1, human GPRC5D (human, UniProt Q9NZD1 1-345)
T1 construct: on transfected HEK293 or RBL cells, or endogenous on MM1R, H929, OPM2, LP-1, JIM3 and patient plasma cells; also called G-protein coupled receptor family C group 5 member D; hGPRC5D
Test: FACS, human GPRC5D cells

T1 sequence (Q9NZD1 whole entry): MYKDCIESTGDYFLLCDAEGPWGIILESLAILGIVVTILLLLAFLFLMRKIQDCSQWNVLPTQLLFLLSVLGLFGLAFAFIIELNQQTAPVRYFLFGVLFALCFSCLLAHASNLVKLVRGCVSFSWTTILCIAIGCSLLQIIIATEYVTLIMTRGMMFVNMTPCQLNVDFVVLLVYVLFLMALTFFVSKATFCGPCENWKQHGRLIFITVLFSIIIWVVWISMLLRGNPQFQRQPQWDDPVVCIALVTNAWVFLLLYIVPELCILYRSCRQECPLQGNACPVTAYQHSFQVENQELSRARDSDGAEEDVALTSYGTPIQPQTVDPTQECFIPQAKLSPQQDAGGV

| Binder | binding result |
| --- | --- |
| GC5B471 (antibody, V domains shown, GC5B164 PTM variant, Hc GC5H278) VH: EVQLVQSGAEVKKPGESLKISCKGSGYSFTSYYIGWVRQMPGKGLEWMGIIYPGASDTRYSPSFQGQVTISADKSISTAYLQWSSLKASDTAMYYCARVYSFGGRHKALFDYWGQGTLVTVSS VL: EIVLTQSPATLSLSPGERATLSCRASQSVSSYLAWYQQKPGQAPRLLIYDASNRATGIPARFSGSGSGTDFTLTISSLEPEDFAVYYCQQRSNWPLTFGQGTKVEIK | binds |
| GC5B485 (antibody, V domains shown, GC5B164 PTM variant, Hc GC5H264) VH: EVQLVQSGAEVKKPGESLKISCKGSGYSFTSYAIGWVRQMPGKGLEWMGIIYPGKSDTRYSPSFQGQVTISADKSISTAYLQWSSLKASDTAMYYCARVYSFGGRHKALFDYWGQGTLVTVSS VL: EIVLTQSPATLSLSPGERATLSCRASQSVSSYLAWYQQKPGQAPRLLIYDASNRATGIPARFSGSGSGTDFTLTISSLEPEDFAVYYCQQRSNWPLTFGQGTKVEIK | binds |
| GC5B479 (antibody, V domains shown, GC5B164 PTM variant, Hc GC5H270) VH: EVQLVQSGAEVKKPGESLKISCKGSGYSFTSYGIGWVRQMPGKGLEWMGIIYPGSSDTRYSPSFQGQVTISADKSISTAYLQWSSLKASDTAMYYCARVYSFGGRHKALFDYWGQGTLVTVSS VL: EIVLTQSPATLSLSPGERATLSCRASQSVSSYLAWYQQKPGQAPRLLIYDASNRATGIPARFSGSGSGTDFTLTISSLEPEDFAVYYCQQRSNWPLTFGQGTKVEIK | binds |
| GC5B473 (antibody, V domains shown, GC5B164 PTM variant, Hc GC5H276) VH: EVQLVQSGAEVKKPGESLKISCKGSGYSFTSYFIGWVRQMPGKGLEWMGIIYPGASDTRYSPSFQGQVTISADKSISTAYLQWSSLKASDTAMYYCARVYSFGGRHKALFDYWGQGTLVTVSS VL: EIVLTQSPATLSLSPGERATLSCRASQSVSSYLAWYQQKPGQAPRLLIYDASNRATGIPARFSGSGSGTDFTLTISSLEPEDFAVYYCQQRSNWPLTFGQGTKVEIK | binds |
| GC5B472 (antibody, V domains shown, GC5B164 PTM variant, Hc GC5H277) VH: EVQLVQSGAEVKKPGESLKISCKGSGYSFTSYVIGWVRQMPGKGLEWMGIIYPGASDTRYSPSFQGQVTISADKSISTAYLQWSSLKASDTAMYYCARVYSFGGRHKALFDYWGQGTLVTVSS VL: EIVLTQSPATLSLSPGERATLSCRASQSVSSYLAWYQQKPGQAPRLLIYDASNRATGIPARFSGSGSGTDFTLTISSLEPEDFAVYYCQQRSNWPLTFGQGTKVEIK | binds |
| GC5B478 (antibody, V domains shown, GC5B164 PTM variant, Hc GC5H271) VH: EVQLVQSGAEVKKPGESLKISCKGSGYSFTSYFIGWVRQMPGKGLEWMGIIYPGSSDTRYSPSFQGQVTISADKSISTAYLQWSSLKASDTAMYYCARVYSFGGRHKALFDYWGQGTLVTVSS VL: EIVLTQSPATLSLSPGERATLSCRASQSVSSYLAWYQQKPGQAPRLLIYDASNRATGIPARFSGSGSGTDFTLTISSLEPEDFAVYYCQQRSNWPLTFGQGTKVEIK | binds |
| GC5B477 (antibody, V domains shown, GC5B164 PTM variant, Hc GC5H272) VH: EVQLVQSGAEVKKPGESLKISCKGSGYSFTSYVIGWVRQMPGKGLEWMGIIYPGSSDTRYSPSFQGQVTISADKSISTAYLQWSSLKASDTAMYYCARVYSFGGRHKALFDYWGQGTLVTVSS VL: EIVLTQSPATLSLSPGERATLSCRASQSVSSYLAWYQQKPGQAPRLLIYDASNRATGIPARFSGSGSGTDFTLTISSLEPEDFAVYYCQQRSNWPLTFGQGTKVEIK | binds |
| GC5B488 (antibody, V domains shown, GC5B164 PTM variant, Hc GC5H261) VH: EVQLVQSGAEVKKPGESLKISCKGSGYSFTSYFIGWVRQMPGKGLEWMGIIYPGESDTRYSPSFQGQVTISADKSISTAYLQWSSLKASDTAMYYCARVYSFGGRHKALFDYWGQGTLVTVSS VL: EIVLTQSPATLSLSPGERATLSCRASQSVSSYLAWYQQKPGQAPRLLIYDASNRATGIPARFSGSGSGTDFTLTISSLEPEDFAVYYCQQRSNWPLTFGQGTKVEIK | binds |
| GC5B480 (antibody, V domains shown, GC5B164 PTM variant, Hc GC5H269) VH: EVQLVQSGAEVKKPGESLKISCKGSGYSFTSYAIGWVRQMPGKGLEWMGIIYPGSSDTRYSPSFQGQVTISADKSISTAYLQWSSLKASDTAMYYCARVYSFGGRHKALFDYWGQGTLVTVSS VL: EIVLTQSPATLSLSPGERATLSCRASQSVSSYLAWYQQKPGQAPRLLIYDASNRATGIPARFSGSGSGTDFTLTISSLEPEDFAVYYCQQRSNWPLTFGQGTKVEIK | binds |
| GC5B491 (antibody, V domains shown, GC5B164 PTM variant, Hc GC5H258) VH: EVQLVQSGAEVKKPGESLKISCKGSGYSFTSYYIGWVRQMPGKGLEWMGIIYPGYSDTRYSPSFQGQVTISADKSISTAYLQWSSLKASDTAMYYCARVYSFGGRHKALFDYWGQGTLVTVSS VL: EIVLTQSPATLSLSPGERATLSCRASQSVSSYLAWYQQKPGQAPRLLIYDASNRATGIPARFSGSGSGTDFTLTISSLEPEDFAVYYCQQRSNWPLTFGQGTKVEIK | binds |
| GC5B490 (antibody, V domains shown, GC5B164 PTM variant, Hc GC5H259) VH: EVQLVQSGAEVKKPGESLKISCKGSGYSFTSYAIGWVRQMPGKGLEWMGIIYPGESDTRYSPSFQGQVTISADKSISTAYLQWSSLKASDTAMYYCARVYSFGGRHKALFDYWGQGTLVTVSS VL: EIVLTQSPATLSLSPGERATLSCRASQSVSSYLAWYQQKPGQAPRLLIYDASNRATGIPARFSGSGSGTDFTLTISSLEPEDFAVYYCQQRSNWPLTFGQGTKVEIK | binds |
| GC5B486 (antibody, V domains shown, GC5B164 PTM variant, Hc GC5H263) VH: EVQLVQSGAEVKKPGESLKISCKGSGYSFTSYYIGWVRQMPGKGLEWMGIIYPGESDTRYSPSFQGQVTISADKSISTAYLQWSSLKASDTAMYYCARVYSFGGRHKALFDYWGQGTLVTVSS VL: EIVLTQSPATLSLSPGERATLSCRASQSVSSYLAWYQQKPGQAPRLLIYDASNRATGIPARFSGSGSGTDFTLTISSLEPEDFAVYYCQQRSNWPLTFGQGTKVEIK | binds |
| GC5B481 (antibody, V domains shown, GC5B164 PTM variant, Hc GC5H268) VH: EVQLVQSGAEVKKPGESLKISCKGSGYSFTSYYIGWVRQMPGKGLEWMGIIYPGKSDTRYSPSFQGQVTISADKSISTAYLQWSSLKASDTAMYYCARVYSFGGRHKALFDYWGQGTLVTVSS VL: EIVLTQSPATLSLSPGERATLSCRASQSVSSYLAWYQQKPGQAPRLLIYDASNRATGIPARFSGSGSGTDFTLTISSLEPEDFAVYYCQQRSNWPLTFGQGTKVEIK | binds |
| GC5B487 (antibody, V domains shown, GC5B164 PTM variant, Hc GC5H262) VH: EVQLVQSGAEVKKPGESLKISCKGSGYSFTSYVIGWVRQMPGKGLEWMGIIYPGESDTRYSPSFQGQVTISADKSISTAYLQWSSLKASDTAMYYCARVYSFGGRHKALFDYWGQGTLVTVSS VL: EIVLTQSPATLSLSPGERATLSCRASQSVSSYLAWYQQKPGQAPRLLIYDASNRATGIPARFSGSGSGTDFTLTISSLEPEDFAVYYCQQRSNWPLTFGQGTKVEIK | binds |

Next, values leading:

| binding result | Binder |
| --- | --- |
| binds | GC5B475 (antibody, V domains shown, GC5B164 PTM variant, Hc GC5H274) VH: EVQLVQSGAEVKKPGESLKISCKGSGYSFTSYAIGWVRQMPGKGLEWMGIIYPGASDTRYSPSFQGQVTISADKSISTAYLQWSSLKASDTAMYYCARVYSFGGRHKALFDYWGQGTLVTVSS VL: EIVLTQSPATLSLSPGERATLSCRASQSVSSYLAWYQQKPGQAPRLLIYDASNRATGIPARFSGSGSGTDFTLTISSLEPEDFAVYYCQQRSNWPLTFGQGTKVEIK |
| binds | GC5B484 (antibody, V domains shown, GC5B164 PTM variant, Hc GC5H265) VH: EVQLVQSGAEVKKPGESLKISCKGSGYSFTSYGIGWVRQMPGKGLEWMGIIYPGKSDTRYSPSFQGQVTISADKSISTAYLQWSSLKASDTAMYYCARVYSFGGRHKALFDYWGQGTLVTVSS VL: EIVLTQSPATLSLSPGERATLSCRASQSVSSYLAWYQQKPGQAPRLLIYDASNRATGIPARFSGSGSGTDFTLTISSLEPEDFAVYYCQQRSNWPLTFGQGTKVEIK |
| binds | GC5B476 (antibody, V domains shown, GC5B164 PTM variant, Hc GC5H273) VH: EVQLVQSGAEVKKPGESLKISCKGSGYSFTSYYIGWVRQMPGKGLEWMGIIYPGSSDTRYSPSFQGQVTISADKSISTAYLQWSSLKASDTAMYYCARVYSFGGRHKALFDYWGQGTLVTVSS VL: EIVLTQSPATLSLSPGERATLSCRASQSVSSYLAWYQQKPGQAPRLLIYDASNRATGIPARFSGSGSGTDFTLTISSLEPEDFAVYYCQQRSNWPLTFGQGTKVEIK |
| binds | GC5B474 (antibody, V domains shown, GC5B164 PTM variant, Hc GC5H275) VH: EVQLVQSGAEVKKPGESLKISCKGSGYSFTSYGIGWVRQMPGKGLEWMGIIYPGASDTRYSPSFQGQVTISADKSISTAYLQWSSLKASDTAMYYCARVYSFGGRHKALFDYWGQGTLVTVSS VL: EIVLTQSPATLSLSPGERATLSCRASQSVSSYLAWYQQKPGQAPRLLIYDASNRATGIPARFSGSGSGTDFTLTISSLEPEDFAVYYCQQRSNWPLTFGQGTKVEIK |
| binds | GC5B482 (antibody, V domains shown, GC5B164 PTM variant, Hc GC5H267) VH: EVQLVQSGAEVKKPGESLKISCKGSGYSFTSYVIGWVRQMPGKGLEWMGIIYPGKSDTRYSPSFQGQVTISADKSISTAYLQWSSLKASDTAMYYCARVYSFGGRHKALFDYWGQGTLVTVSS VL: EIVLTQSPATLSLSPGERATLSCRASQSVSSYLAWYQQKPGQAPRLLIYDASNRATGIPARFSGSGSGTDFTLTISSLEPEDFAVYYCQQRSNWPLTFGQGTKVEIK |
| binds | GC5B483 (antibody, IgG4, V domains shown, GC5B164 variant D55K, W33F; IgG4 S228P, L234A, L235A; also called GC5H266) VH: EVQLVQSGAEVKKPGESLKISCKGSGYSFTSYFIGWVRQMPGKGLEWMGIIYPGKSDTRYSPSFQGQVTISADKSISTAYLQWSSLKASDTAMYYCARVYSFGGRHKALFDYWGQGTLVTVSS VL: EIVLTQSPATLSLSPGERATLSCRASQSVSSYLAWYQQKPGQAPRLLIYDASNRATGIPARFSGSGSGTDFTLTISSLEPEDFAVYYCQQRSNWPLTFGQGTKVEIK |
| binds | GC5B492 (antibody, V domains shown, GC5B164 PTM variant, Hc GC5H257) VH: EVQLVQSGAEVKKPGESLKISCKGSGYSFTSYVIGWVRQMPGKGLEWMGIIYPGYSDTRYSPSFQGQVTISADKSISTAYLQWSSLKASDTAMYYCARVYSFGGRHKALFDYWGQGTLVTVSS VL: EIVLTQSPATLSLSPGERATLSCRASQSVSSYLAWYQQKPGQAPRLLIYDASNRATGIPARFSGSGSGTDFTLTISSLEPEDFAVYYCQQRSNWPLTFGQGTKVEIK |
